The record followed here is the supplement of paper PMC9170038.

For this data set, the system named is MS2 coat protein. Briefly: apparent KD of MS2 coat protein; designed switch direction (-1 OFF switch, 1 ON switch): -1; higher = weaker reporter binding. The gist of the method: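 The reported apparent KD is a per-design median over clusters, from curve fits of normalised cluster fluorescence. Protein titrations used SNAP-549-labelled MS2 coat protein, doubled from 0.7 or 1.5 nM to 3 µM, in Tris-HCl pH 7.5 buffer with KCl, MgCl2, BSA, DTT, tRNA and Tween-20, with no input, 200 uM small-molecule ligand, or an oligonucleotide input. The RNA switches were transcribed on Illumina chips by stalled E. coli RNA polymerase.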

Where [1] appears, read: input ligand: microRNA oligo, concentration not stated.
Where [2] appears, read: Eterna round: R95, input ligand: FMN 200 uM.
Setting [3] is: Eterna round: R95, input ligand: microRNA oligo, concentration not stated.
Where [4] appears, read: Eterna round: R95, input ligand: none.

“AGUAUGCGGCAGGAUAUCCAUCCGCGAAAAGGUGGAGAAGGGCUGACAUGAGGAUCACCCAUGUGCGUCCUGUA [salish99_ex6_r4_030] (Eterna round: R97, puzzle: Exclusion 6)”: the “apparent KD of MS2 coat protein” value was found to be 25.3 nM (input ligand: FMN 200 uM) and 17.7 nM (input ligand: none).

Take “AGUCAAACGGUAGGAUAUCCAUAUCGAGUGACCCUUUCAUAACAUGAGGAUCACCCAUGUCGGUGGGAGAAGGGCCGUAAGGCA [Mat - Exclusion NG 2 - Mod of JL - D70] (Eterna round: R96, puzzle: Exclusion NG 2)”: the “apparent KD of MS2 coat protein” value by setting is: (input ligand: FMN 200 uM) 99.6 nM; under setting [1], 43.1 nM; (input ligand: none) 52.4 nM.

Turning to “AGUCAAGAUGAGGAUAUCCGUGUAACAAACGCAGGAGAAGGCGUCACAUGAGGAUCACCCAUGUUGCCUCUAAG [Eternabot (L1) Solution 92] (Eterna round: R97, puzzle: Exclusion 6)”, the “apparent KD of MS2 coat protein” value (input ligand: FMN 200 uM) is 45.9 nM and the “apparent KD of MS2 coat protein” value (input ligand: none) was found to be 58.1 nM.

For “AGUCAGGCGGUAGGAUAUCCAAAUCGAGUGACCCUUUCAUAACAUGAGGAUCACCCAUGUCGGUGGGAGAAGGGCCGUACGGCG [JL ViennaUCT Atra mod 3] (Eterna round: R96, puzzle: Exclusion NG 2)”, the “apparent KD of MS2 coat protein” value (input ligand: FMN 200 uM) stood at 232 nM, the “apparent KD of MS2 coat protein” value under setting [1] is 88 nM and the “apparent KD of MS2 coat protein” value (input ligand: none) turned out to be 104 nM.

As for “AGUCCACUUACAAGCUUUUACAUGAGGAUCACCCAUGUGUGGGACCCUAAGGGUGCUCAUGACCGCUCCAUACUCUC [Eternabot (L1) Solution 4] (Eterna round: R97, puzzle: Sensor, turn-off variant 1)”, the “apparent KD of MS2 coat protein” value (input ligand: FMN 200 uM) turned out to be 240 nM and the “apparent KD of MS2 coat protein” value (input ligand: none) was determined as 254 nM.

As to “AGUCGGUCAGGAUAUGCAAACGUGGACAUGAGGAUCACCCAUGUAACGUGGGCCUGGUUUGUAGAAGGGACGAGCA [EX5 #86] (Eterna round: R97, puzzle: Exclusion 5)”, the “apparent KD of MS2 coat protein” value runs as follows: (input ligand: FMN 200 uM) 35.1 nM; (input ligand: none) 34.5 nM.

In the case of “AGUCGUAGACAGGAUAUGCGGCUAAUAAAUAAAGCAGAAGGGUCUACUUGAGGAUCACCCAAGUGGGCGGUUAA [jl-ex6-4.19 ViennaUCT mod] (Eterna round: R97, puzzle: Exclusion 6)”, the “apparent KD of MS2 coat protein” value worked out at 104 nM (input ligand: FMN 200 uM) and 20.8 nM (input ligand: none).

Regarding “AGUGCGUAUGUGAGGAUAUGCUGGUCCUUGGAUCAGCAGAAGGCACAUGAGGAUCACCCAUGUGGUGUCGUACG [salish99_Bmod_Ex4_004] (puzzle: Brourd's mod of Exclusion 4)”, the “apparent KD of MS2 coat protein” value under setting [2] turned out to be 245 nM, the “apparent KD of MS2 coat protein” value under setting [3] was found to be 51.8 nM and the “apparent KD of MS2 coat protein” value under setting [4] was determined as 60 nM.

Consider “AGUGUGGAGACAGGAUAUGAGAAUAGAUAGAAAUCAGAAGGGUCACAUGAGGAUCACCCAUGUAAAGUCUUGAGGAUGAGUGAU [Prohibition 2 - Jieux - Exclusion NG 1] (Eterna round: R96, puzzle: Exclusion NG 1)”, for which the “apparent KD of MS2 coat protein” value worked out at 263 nM (input ligand: FMN 200 uM), 63.9 nM under setting [1] and 88.8 nM (input ligand: none).

Consider “AGUGUGUGGCAGGAUAUGCGAUUUGUAGGUGAAGCAGAAGGGUCUACAUGAGGAUCACCCAUGUGUGCGGUUGA [Ex6 #18] (Eterna round: R97, puzzle: Exclusion 6)”, for which the “apparent KD of MS2 coat protein” value worked out at 457 nM (input ligand: FMN 200 uM) and 216 nM (input ligand: none).

On to “AGUUGGCGAGGAUAUACAUGAGGAUCACCCAUGUGAGAGAAAAAAGUGAGGAAGAAAAGUAGAAGGCGCUGACG [salish99_ex3_r3_040] (puzzle: Exclusion 3)”, for which the “apparent KD of MS2 coat protein” value under setting [2] stood at 61.2 nM, the “apparent KD of MS2 coat protein” value under setting [3] worked out at 38.5 nM and the “apparent KD of MS2 coat protein” value under setting [4] worked out at 40.1 nM.

“AGUUGGCGAGGAUAUACAUGAGGAUCACCCAUGUGAGAGAUACUAGUGAGGUCGAUUAGGAGAAGGCGCUGACA [Mat X3R4 m20] (Eterna round: R97, puzzle: Exclusion 3)”: the “apparent KD of MS2 coat protein” value runs as follows: (input ligand: FMN 200 uM) 63.1 nM; (input ligand: none) 48 nM.

As for “AGUUGGCGAGGAUAUACAUGAGGAUCACCCAUGUGAGAGAUACUAGUGAGGUCGAUUAGUAGAAGGCGCUGACA [Mat - Exclusion 3 - Mod of JL D77] (puzzle: Exclusion 3)”, the “apparent KD of MS2 coat protein” value under setting [3] was 31.6 nM.

As for “AUAAAGAAUGUUAGGAUAUUGGUGAAUAGGCUGACUAAGAAGGAACAUGAGGAUCACCCAUGUAAAAUGGAAAA [Readima] (puzzle: Brourd's mod of Exclusion 4)”, the “apparent KD of MS2 coat protein” value by setting is: under setting [2], 66.7 nM; under setting [3], 23 nM; under setting [4], 29.1 nM.

On to “AUAAAGUGAGGAUAUAUAAGACACGGUGAUACACCGUGAAAAUAGAAGGUACAUGAGGAUCACCCAUGUAGGGC [Mod of Anonveat 18 - Jieux - Exclusion 4] (Eterna round: R97, puzzle: Exclusion 4)”, for which the “apparent KD of MS2 coat protein” value (input ligand: FMN 200 uM) amounted to 33.6 nM and the “apparent KD of MS2 coat protein” value (input ligand: none) is 29.4 nM.

Take “AUAAAGUGAGGAUAUAUAAGACACGGUGAUACACCGUGAAAAUAGAAGGUACAUGAGGAUCACCCAUGUUGGGC [Mod of Anonveat 19 - Jieux - Exclusion 4] (Eterna round: R97, puzzle: Exclusion 4)”: the “apparent KD of MS2 coat protein” value came out at 50.2 nM (input ligand: FMN 200 uM) and 53.7 nM (input ligand: none).

For “AUAAAUCAUGUAGGAUAUGCGUAGCGAAGCUAUGCAGAAGGACAUGAGGAUCACCCAUGUCUUUCCGUCUGCGAACAGACGGAA [Mat - Exclusion NG 1 - Mod of JL - D43] (Eterna round: R96, puzzle: Exclusion NG 1)”, the “apparent KD of MS2 coat protein” value reads like this: (input ligand: FMN 200 uM) 199 nM; under setting [1], 20 nM; (input ligand: none) 31.6 nM.

Turning to “AUAACAAGCUUUUUUUUCGUCGUAUAUGACGCUCGAGUCACAUGAGGAUCACCCAUGUCUUCCUGUUUGAUUGUUGA [JR_SV3TOV2_Sub057] (puzzle: Sensor v3, turn-off variant 2)”, the “apparent KD of MS2 coat protein” value is, setting by setting: under setting [2], 167 nM; under setting [3], 154 nM; under setting [4], 173 nM.

Regarding “AUAAGUAUGAAGGAUAUGCGCGAGCCAGCUUGGGCAGAAGGUUAAACAUGAGGAUCACCCAUGUGGAAAUCCGA [Eternabot (Original) Solution 34] (Eterna round: R97, puzzle: Exclusion 6)”, the “apparent KD of MS2 coat protein” value turned out to be 32.9 nM (input ligand: FMN 200 uM) and 21.7 nM (input ligand: none).

Consider “AUAAUGUAAGGAUAUCAGUCGACUAGCCUCGGCUAGUCGACUGAGAAGGUACAUGAGGAUCACCCAUGUGAAUA [E4/16-A2] (Eterna round: R97, puzzle: Exclusion 4)”, for which the “apparent KD of MS2 coat protein” value is, setting by setting: (input ligand: FMN 200 uM) 228 nM; (input ligand: none) 52.1 nM.

As for “AUAAUGUAAGGAUAUCAGUCGACUAGCUUCGGCUAGUCGACUGAGAAGGUACAUGAGGAUCACCCAUGUGGUUC [E4/11-A1] (Eterna round: R97, puzzle: Exclusion 4)”, the “apparent KD of MS2 coat protein” value is, setting by setting: (input ligand: FMN 200 uM) 118 nM; (input ligand: none) 985 nM.

Regarding “AUAAUGUCAGGAUAUCAGAAGUUUAACUUCGGUUAAACUUCUGAGAAGGGACAUGAGGAUCACCCAUGUGAUUA [E4/3-B1] (Eterna round: R97, puzzle: Exclusion 4)”, the “apparent KD of MS2 coat protein” value is, setting by setting: (input ligand: FMN 200 uM) 109 nM; (input ligand: none) 1330 nM.

In the case of “AUAAUUAAUCGAGGAUAUCAGCACGAUUAGUGCUGAGAAGGCGACAUGAGGAUCACCCAUGUGAUCAAUUAAUAUUAAUAUUAU [ENG1/11-C1] (Eterna round: R96, puzzle: Exclusion NG 1)”, the “apparent KD of MS2 coat protein” value (input ligand: FMN 200 uM) was 1630 nM, the “apparent KD of MS2 coat protein” value under setting [1] amounted to 626 nM and the “apparent KD of MS2 coat protein” value (input ligand: none) stood at 808 nM.

Turning to “AUAAUUAAUGCAGGAUAUCAGCACGAUUAGUGCUGAGAAGGGCACAUGAGGAUCACCCAUGUGAUCAAUUAAUAUUAAUAUUAU [ENG1/11-D1] (Eterna round: R96, puzzle: Exclusion NG 1)”, the “apparent KD of MS2 coat protein” value (input ligand: FMN 200 uM) turned out to be 279 nM, the “apparent KD of MS2 coat protein” value under setting [1] worked out at 53 nM and the “apparent KD of MS2 coat protein” value (input ligand: none) came out at 61.6 nM.

Take “AUACAACAUGAGGAUCACCCAUGUGAGGAUAUGCGAUAUAUCAUCAUCAUAAUCAUAAGCAGAAGGCACAACAU [Another One] (puzzle: Exclusion 1)”: the “apparent KD of MS2 coat protein” value is, setting by setting: under setting [2], 35.7 nM; under setting [3], 35.6 nM; under setting [4], 34 nM.

Turning to “AUACAGGAUGUCAGGAUAUGUUGUAGGUUCCGACGACAGAAGGGACAUGAGGAUCACCCAUGUAGGCCUUUGCU [BmEX4 C.7] (Eterna round: R97, puzzle: Brourd's mod of Exclusion 4)”, the “apparent KD of MS2 coat protein” value stood at 31.4 nM (input ligand: FMN 200 uM) and 15.1 nM (input ligand: none).

For the sequence “AUAUAACAUGAGGAUCACCCAUGUCAGGAUAUGCAGAACAAGAACAAGACAAGACAGAGCAGAAGGGACAAUAU [Ex 1 M4] (puzzle: Exclusion 1)”, the “apparent KD of MS2 coat protein” value under setting [2] came out at 43.8 nM, the “apparent KD of MS2 coat protein” value under setting [3] was determined as 34.9 nM and the “apparent KD of MS2 coat protein” value under setting [4] is 48.1 nM.

As for “AUAUAGCGAGGAUAUACAUGAGGAUCACCCAUGUAAUAAAUAUAUAUAUUUAUAUUAUGUAGAAGGCGCUAUAU [-18.5, -17.2 kcal, 39% A] (Eterna round: R97, puzzle: Exclusion 3)”, the “apparent KD of MS2 coat protein” value was 30.3 nM (input ligand: FMN 200 uM) and 14.5 nM (input ligand: none).

As for “AUAUCGUGAGGAUAUCCAAUAUAUGACAUGAGGAUCACCCAUGUUUCCACUCGUACCUCCGGAGAAGGCACAGUUA [Ex5 #72] (Eterna round: R97, puzzle: Exclusion 5)”, the “apparent KD of MS2 coat protein” value reads like this: (input ligand: FMN 200 uM) 23.9 nM; (input ligand: none) 24.5 nM.

On to “AUAUUAAUAGUAAGGAUAUGCGUAUAUAUAGUUAUGCAGAAGGUACAUGAGGAUCACCCAUGUAUUAAUGUGUA [LRO-BmodExc4-03-Oppy's Opus] (Eterna round: R97, puzzle: Brourd's mod of Exclusion 4)”, for which the “apparent KD of MS2 coat protein” value by setting is: (input ligand: FMN 200 uM) 14.9 nM; (input ligand: none) 14.3 nM.
